{"source": "patent US20220010017A1", "about": "(Bayer, published 2022)", "binders": {"B1": {"name": "TPP-3310 (antibody, human IgG2, kappa, V domains shown)", "VH": "QVTLRESGPALVKPTQTLTLTCTFSGFSLSTYGIGVGWIRQPPGKALEWLAHIWWNDNKYYSTSLKTRLTISKDTSKNQVVLTMTNMDPVDTATYYCARISLPYFDYWGQGTTLTVSS", "VL": "DIQLTQSPSFLSASVGDRVTITCKASQNVGTAVAWYQQKPGKAPKLLIYSASNRYTGVPSRFSGSGSGTEFTLTISSLQPEDFATYYCQQYSSYPLTFGGGTKVEIKR"}}, "target": "T1, human CEACAM6 (human, UniProt P40199 35-320)", "T1 sequence (looked up)": "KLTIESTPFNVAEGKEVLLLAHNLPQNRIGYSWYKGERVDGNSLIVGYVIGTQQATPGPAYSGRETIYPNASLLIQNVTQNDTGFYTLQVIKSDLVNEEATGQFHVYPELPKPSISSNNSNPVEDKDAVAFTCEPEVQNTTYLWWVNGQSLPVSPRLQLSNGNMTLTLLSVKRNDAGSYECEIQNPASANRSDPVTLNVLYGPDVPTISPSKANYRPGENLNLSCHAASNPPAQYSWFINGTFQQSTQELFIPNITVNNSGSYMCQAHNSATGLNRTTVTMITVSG", "experiment": "cell-based or functional assay", "data": [{"binder": "B1", "values": [{"measurement": "half-maximal effective concentration (EC50) on the activation of T cells in co-culture", "result": "~1", "unit": "µg/mL"}]}]}
